{"source": "patent US20220340660A1", "about": "(Merck Sharp & Dohme, published 2022)", "binders": {"B1": {"name": "anti-mouse TIGIT monoclonal antibody 18G10 (antibody, V domains shown)", "VH": "QVQLMESGPGLVQPSQTLSLTCTVSGFPLTSYTVHWVRQPPGKGLEWIGAIWSSGSTDYNSALKSRLNINRDSSKSQVFLKMNSLQTEDTAIYFCTKSGWAFFDYWGQGVMVTVSS", "VL": "DIQMTQSPSLLSASVGDRVTLNCIASQNIYKSLAWYQLKLGEAPKLLIYNANSLQAGIPSRFSGSGSGTDFALTISGLQPEDVATYFCQQYSGGYTFGAGTKLELK", "notes": "also called anti-mouse TIGIT, clone 18G10; rat anti-mouse TIGIT (mTIGIT) antibody clone 18G10"}, "B2": {"name": "chimeric anti-TIGIT (18G10):mIgG2a (antibody)", "heavy": "QVQLMESGPGLVQPSQTLSLTCTVSGFPLTSYTVHWVRQPPGKGLEWIGAIWSSGSTDYNSALKSRLNINRDSSKSQVFLKMNSLQTEDTAIYFCTKSGWAFFDYWGQGVMVTVSSAKTTAPSVYPLAPVCGDTTGSSVTLGCLVKGYFPEPVTLTWNSGSLSSGVHTFPAVLQSDLYTLSSSVTVTSSTWPSQSITCNVAHPASSTKVDKKIEPRGPTIKPCPPCKCPAPNLLGGPSVFIFPPKIKDVLMISLSPIVTCVVVDVSEDDPDVQISWFVNNVEVHTAQTQTHREDYNSTLRVVSALPIQHQDWMSGKEFKCKVNNKDLPAPIERTISKPKGSVRAPQVYVLPPPEEEMTKKQVTLTCMVTDFMPEDIYVEWTNNGKTELNYKNTEPVLDSDGSYFMYSKLRVEKKNWVERNSYSCSVVHEGLHNHHTTKSFSRTPGK", "light": "DIQMTQSPSLLSASVGDRVTLNCIASQNIYKSLAWYQLKLGEAPKLLIYNANSLQAGIPSRFSGSGSGTDFALTISGLQPEDVATYFCQQYSGGYTFGAGTKLELKRADAAPTVSIFPPSSEQLTSGGASVVCFLNNFYPKDINVKWKIDGSERQNGVLNSWTDQDSKDSTYSMSSTLTLTKDEYERHNSYTCEATHKTSTSPIVKSFNRNEC", "notes": "Rat 18G10 variable domains on an intact mouse IgG2a backbone; also called anti-TIGIT:mIgG2a"}, "B3": {"name": "chimeric anti-TIGIT (18G10):mIgG1-[D265A] (antibody)", "heavy": "QVQLMESGPGLVQPSQTLSLTCTVSGFPLTSYTVHWVRQPPGKGLEWIGAIWSSGSTDYNSALKSRLNINRDSSKSQVFLKMNSLQTEDTAIYFCTKSGWAFFDYWGQGVMVTVSSAKTTPPSVYPLAPGSAAQTNSMVTLGCLVKGYFPEPVTVTWNSGSLSSGVHTFPAVLQSDLYTLSSSVTVPSSTWPSETVTCNVAHPASSTKVDKKIVPRDCGCKPCICTVPEVSSVFIFPPKPKDVLTITLTPKVTCVVVAISKDDPEVQFSWFVDDVEVHTAQTQPREEQFNSTFRSVSELPIMHQDWLNGKEFKCRVNSAAFPAPIEKTISKTKGRPKAPQVYTIPPPKEQMAKDKVSLTCMITDFFPEDITVEWQWNGQPAENYKNTQPIMDTDGSYFVYSKLNVQKSNWEAGNTFTCSVLHEGLHNHHTEKSLSHSPGK", "light": "DIQMTQSPSLLSASVGDRVTLNCIASQNIYKSLAWYQLKLGEAPKLLIYNANSLQAGIPSRFSGSGSGTDFALTISGLQPEDVATYFCQQYSGGYTFGAGTKLELKRADAAPTVSIFPPSSEQLTSGGASVVCFLNNFYPKDINVKWKIDGSERQNGVLNSWTDQDSKDSTYSMSSTLTLTKDEYERHNSYTCEATHKTSTSPIVKSFNRNEC", "notes": "Rat 18G10 variable domains on a mouse IgG1 backbone with D265A; also called anti-TIGIT:mIgG1*"}}, "key": {"[1]": {"molecular_target": "T1, mouse TIGIT on mouse TIGIT-overexpressing CHO cells (mouse, UniProt P86176 29-249)", "T1 construct": "whole, on cells; also called mTIGIT/CHO; mTIGIT", "T1 sequence (looked up)": "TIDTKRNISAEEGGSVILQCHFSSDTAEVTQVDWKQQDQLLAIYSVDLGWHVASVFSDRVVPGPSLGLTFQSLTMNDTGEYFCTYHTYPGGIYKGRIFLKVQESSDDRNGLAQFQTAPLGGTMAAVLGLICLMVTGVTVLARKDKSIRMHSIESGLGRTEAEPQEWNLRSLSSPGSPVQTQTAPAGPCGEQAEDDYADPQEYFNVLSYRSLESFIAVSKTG", "experiment": "cell-based ELISA on mTIGIT/CHO cells, detected by anti-mouse IgG", "experimental": "(§1) FIG. 1A and FIG. 1B are graphs showing identification and characterization of anti-mouse TIGIT monoclonal antibody 18G10. FIG. 1A is a line graph showing binding of anti-mouse TIGIT, clone 18G10, was measured by a cell-based ELISA using mouse TIGIT-overexpressing CHO cells (mTIGIT/CHO). 18G10 was serially diluted as indicated. After 30 min. of incubation, unbound 18G10 antibody was washed out, and the bound 18G10 antibodies were detected using an anti-mouse IgG reagent (closed circles). When the 18G10 was bound in the indicated serial dilutions on mTIGIT/CHO, 8 μg/ml recombinant mouse CD155:hIgG1-Fc (rmCD155) was added to the plate in order to verify whether 18G10 blocked the interaction of rmCD155 with mTIGIT/CHO. After 40 minutes of incubation, unbound recombinant CD155 was washed out, and the bound recombinant CD155 was detected by anti-human IgG reagent (open circles). […] Chimeric anti-TIGIT (18G10):mIgG2a, anti-TIGHT (18G10):mIgG1-[D265A], and isotype controls with mIgG2a or mIgG1-[D265A] isotype were loaded to ELISA plates coated with 1 μg/ml of (left panel) recombinant mouse TIGIT protein or (right panel) goat anti-mouse IgG-Fc antibody. Bound antibodies to each plate were detected. Note: mIgG1* indicates mIgG1-[D265A]."}, "[2]": {"molecular_target": "T2, recombinant mouse TIGIT protein (mouse, UniProt P86176 29-148, limits assumed)", "T2 construct": "also called mTIGIT recombinant protein; mTIGIT", "T2 sequence (looked up)": "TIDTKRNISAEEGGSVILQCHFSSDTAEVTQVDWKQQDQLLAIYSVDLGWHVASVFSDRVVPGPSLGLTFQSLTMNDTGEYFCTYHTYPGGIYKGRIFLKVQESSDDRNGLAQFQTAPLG", "experiment": "ELISA, plate coated with 1 µg/ml recombinant mouse TIGIT protein (FIG. 1B)", "experimental": "as §1"}}, "data": [{"binder": "B1", "values": [{"measurement": "binding result", "setting": "[1]", "result": "binds"}]}, {"binder": "B2", "values": [{"measurement": "binding result", "setting": "[2]", "result": "binds"}]}, {"binder": "B3", "values": [{"measurement": "binding result", "setting": "[2]", "result": "binds"}]}]}
